Measurements published in patent publication US11371056B2, “HPPD variants and methods of use” (BASF Agricultural Solutions Seed US LLC, priority 2017, dated 2022).
Substitutions are numbered along the chain they refer to.

Legend:
[1] = system: soybean plants (transgenic T0 events, wild-type); test: Greenhouse spray test of T0 soybean events with Cmpd. 1, leaf area damage score; assay type: in vivo; design: key to leaf area damage score, 25th percentile / leaf area damage score, Interquartile range: damage score 0 (no damage) to 100 (complete bleaching); details: for leaf area damage score, 25th percentile / leaf area damage score, 75th percentile / leaf area damage score, 90th percentile / leaf area damage score, Median: T0 soybean events expressing the polypeptide; for leaf area damage score, 25th percentile / leaf area damage score, 75th percentile / leaf area damage score, 90th percentile / leaf area damage score, Median / leaf area damage score, Interquartile range: five days after application of Cmpd. 1 at 300 g AI/ha; for leaf area damage score, 75th percentile / leaf area damage score, 90th percentile / leaf area damage score, Median: scale 0 to 100; for leaf area damage score, Median: 50th percentile; for leaf area damage score, Interquartile range: difference between 75th and 25th percentile, T0 soybean events
Description: Tolerant green shoots were transferred to rooting media or grafted. Rooted plantlets were transferred to the greenhouse after an acclimation period. Plants containing the transgene were then sprayed with HPPD inhibitor herbicides, as for example with mesotrione at a rate of 300-600 g AI/ha, or with Cmpd. 1 (2-chloro-3-(methylsulfanyl)-N-(1-methyl-1H-tetrazol-5-yl)-4-(trifluoromethyl)benzamide) at a rate of 150 g-300 g AI/ha supplemented with ammonium sulfate and methyl ester rapeseed oil. Five to ten days after the application, the symptoms due to the application of the herbicide were evaluated and compared to the symptoms observed on wild-type plants under the same conditions.
For example, T0 soybean plants having a “plant expression cassette”, which includes an HPPD inhibitor tolerant HPPD polypeptide of the present invention, were tested towards the tolerance of Cmpd. 1.
Prior greenhouse trials with the transgenic plants, soybean transformants were routinely analyzed for the expression and presence of the transgenes using the ELISA protein detection method (see detailed description under item D and H). Only plants recovering in the selection media and having a detectable HPPD transgene protein expression were used for the herbicide tolerance analysis. A DeVries Tracker Sprayer was calibrated prior to each spraying. The chemical formulation used for Cmpd. 1 was supplemented with ammonium sulfate and methylated rape seed oil. Spray tests were conducted with a concentration, which equals to 300 grams AI per hectare (300 g AI/ha).
In greenhouse trials, independent T0 soybean events containing an exemplary mutant HPPD polypeptide were sprayed with the HPPD inhibitor herbicide Cmpd. 1 (2-chloro-3-(methylsulfanyl)-N-(1-methyl-1H-tetrazol-5-yl)-4-(trifluoromethyl)benzamide) at the rate of 300 grams AI/ha, supplemented with ammonium sulfate and methyl ester rapeseed oil. Five days after the application, the leaf damaged area due to the HPPD inhibitor herbicide is scored in a scale from 0 (no damage) to 100 (complete bleaching). Under those conditions, the wild-type plants were completely bleached and their damage scores were in the 95-100 range.
Table 5 presents the distribution of the HPPD inhibitor herbicide damage score data as percentile for exemplary mutant HPPD inhibitor herbicide tolerant polypeptides (SEQ ID NOs). The percentiles normalize ranks of the damage score from an individual plant in a population. […] The median is the 50th percentile. Half the values had higher damage scores; half had lower damage scores. The value of the 75th and 90th percentile is the damage score where 75% and 90% of the soybean events had lower damage scores, respectively. The difference between the 75th and 25th percentile is called the interquartile range and a marker to quantify scattering in the population. All constructs had only one single cassette insertion in the soybean genome.

[2] = system: Pseudomonas fluorescens HPPD polypeptide (wild-type and mutants); test: Coupled HPPD activity assay: turnover and residual turnover in crude HPPD polypeptide extracts with and without Cmpd. 1; assay type: biochemical; details: for Turnover: absence of Cmpd. 1; for Turnover / Residual turnover: changes in absorbance (OD) at 320 nm in the coupled assay, 30 min; for Residual turnover: presence of 100 μM Cmpd. 1
soybean shoots = test: Soybean transformation, selection of shoots with tembotrione (greening or bleaching); assay type: in vivo; details: wild-type soybean shoots treated with tembotrione
Description: Soybean transformation was achieved by using methods well known in the art, such as the one described using the Agrobacterium tumefaciens mediated transformation soybean half-seed explants using essentially the method described by Paz et al. (2006), Plant cell Rep. 25:206. Transformants were identified by using the HPPD inhibitor herbicide “tembotrione” as selection marker. The appearance of green shoots was observed, and documented as an indicator of tolerance to the HPPD inhibitor herbicide tembotrione.

[3] = scale 0 (no damage) to 100 (complete bleaching)

CSc1c(C(F)(F)F)ccc(C(=O)Nc2nnnn2C)c1Cl [Cmpd. 1, 2-chloro-3-(methylsulfanyl)-N-(1-methyl-1H-tetrazol-5-yl)-4-(trifluoromethyl)benzamide, reference compound]
damage scores ([1]; wild-type soybean plants, Cmpd. 1 300 g AI/ha, five days after application, scale 0 (no damage) to 100 (complete bleaching)): 95-100 | Turnover [2]: 0.236 | Residual turnover [2]: 0.042

CS(=O)(=O)c1ccc(C(=O)C2C(=O)CCCC2=O)c(Cl)c1COCC(F)(F)F [tembotrione, 2-[2-chloro-4-(methylsulfonyl)-3-[(2,2,2,-trifluoroethoxy)methyl]benzoyl]-1,3-cyclohexanedione]
bleaching of shoots (soybean shoots): entirely bleached

B1: SEQ ID NO:62: mutant HPPD polypeptide: 213K 215A 264L 268G 270E 315Q 335P 336D 337S 340V 344Q 345M (protein)
chain: MADLYENPMGLMGFEFIEFASPTPGTLEPIFEIMGFTKVATHRSKNVHLYRQGEINLILNNEPNSIASYFAAEHGPSVCGMAFRVKDSQKAYNRALELGAQPIHIDTGPMELNLPAIKGIGGAPLYLIDRFGEGSSIYDIDFVYLEGVERNPVGAGLKVIDHLTHNVYRGRMVYWANFYEKLFNFREARYFDIKGEYTGLTSKAMSAPDGMIKIALNEESSKGAGQIEEFLMQFNGEGIQHVAFLTDDLVKTWDALKKIGMRFLTAPGDEYYEMLEGRLPDHGEPVDQLQARGILLDGSSVEGDKRLLLQIFSEQLMGPVFFEFIQRKGDDGFGPDSFKVLFEQMERDQVRRGVLTAD
modifications: mutant HPPD polypeptide
notes: mutant HPPD polypeptide: 213K 215A 264L 268G 270E 315Q 335P 336D 337S 340V 344Q 345M
leaf area damage score, 25th percentile [1, 3]: 10.0 | leaf area damage score, 75th percentile [1]: 25.0 | leaf area damage score, 90th percentile [1]: 35.0 | leaf area damage score, Median [1]: 15.0 | leaf area damage score, Interquartile range [1]: 15.0 | turnover and residual turnover, comparison in words ([2]; 100 μM Cmpd. 1, Table 3): increase significantly the turnover and the residual turnover | Residual turnover [%] ([2]; 100 μM Cmpd. 1, normalised to turnover without inhibitor): 79% | Turnover [2]: 0.209 | Residual turnover [2]: 0.166

B2: SEQ ID NO: 23 (protein)
chain: B1 chain with K213R, A215P, L264M, D336H, Q344S, M345I
modifications: mutant HPPD polypeptide
leaf area damage score, 25th percentile [1, 3]: 10 | leaf area damage score, 75th percentile [1]: 22.5 | leaf area damage score, 90th percentile [1]: 55.0 | leaf area damage score, Median [1]: 10 | leaf area damage score, Interquartile range [1]: 12.5

B3: SEQ ID NO: 43 (protein)
chain: B1 chain with A215P, L264M, Q315K, D336H, Q344S
modifications: mutant HPPD polypeptide
leaf area damage score, 25th percentile [1, 3]: 10.0 | leaf area damage score, 75th percentile [1]: 25.0 | leaf area damage score, 90th percentile [1]: 35.0 | leaf area damage score, Median [1]: 10.0 | leaf area damage score, Interquartile range [1]: 15.0

B4: SEQ ID NO: 64 (protein)
chain: B1 chain with A215P, D336H, Q344S
modifications: mutant HPPD polypeptide
leaf area damage score, 25th percentile [1, 3]: 5.0 | leaf area damage score, 75th percentile [1]: 25.0 | leaf area damage score, 90th percentile [1]: 38.0 | leaf area damage score, Median [1]: 10.0 | leaf area damage score, Interquartile range [1]: 20.0

B5: SEQ ID NO: 45 (protein)
chain: B1 chain with A215P, L264M, Q315T, D336H, Q344S
modifications: mutant HPPD polypeptide
leaf area damage score, 25th percentile [1, 3]: 10.0 | leaf area damage score, 75th percentile [1]: 25.0 | leaf area damage score, 90th percentile [1]: 35.0 | leaf area damage score, Median [1]: 15.0 | leaf area damage score, Interquartile range [1]: 15.0

B6: SEQ ID NO: 2 (protein)
chain: MADLYENPMGLMGFEFIEFASPTPGTLEPIFEIMGFTKVATHRSKNVHLYRQGEINLILNNEPNSIASYFAAEHGPSVCGMAFRVKDSQKAYNRALELGAQPIHIDTGPMELNLPAIKGIGGAPLYLIDRFGEGSSIYDIDFVYLEGVERNPVGAGLKVIDHLTHNVYRGRMVYWANFYEKLFNFREARYFDIKGEYTGLTSKAMSAPDGMIRIPLNEESSKGAGQIEEFLMQFNGEGIQHVAFLTDDLVKTWDALKKIGMRFMTAPPDTYYEMLEGRLPDHGEPVDQLQARGILLDGSSVEGDKRLLLQIFSETLMGPVFFEFIQRKGDDGFGPWNFAQLFESIERDQVRRGVLTAD
modifications: mutant HPPD polypeptide
leaf area damage score, 25th percentile [1, 3]: 15.0 | leaf area damage score, 75th percentile [1]: 45.0 | leaf area damage score, 90th percentile [1]: 87.0 | leaf area damage score, Median [1]: 20.0 | leaf area damage score, Interquartile range [1]: 30.0
